{
  "source": "FireProtDB (doi:10.1016/s0022-2836(02)00630-7)",
  "conditions": "Bacillus subtilis (strain 168); pH 7; Thermal; CD; Potassium phosphate 10 mM; reversible: yes; whole UniProt chain shown",
  "data": [
    {"protein": "Phosphocarrier protein HPr wild type, P08877 (protein) MAQKTFKVTADSGIHARPATVLVQTASKYDADVNLEYNGKTVNLKSIMGVMSLGIAKGAEITISASGADENDALNALEETMKSEGLGE", "values": [
      {"measurement": "Tm", "result": 72.6, "unit": "°C"},
      {"measurement": "unfolding enthalpy (van 't Hoff)", "result": 74.9, "unit": "kcal/mol"}
    ]}
  ]
}
